{"source": "paper PMC11814294", "about": "“A pathogen effector HaRxL10 hijacks the circadian clock component CHE to perturb both plant development and immunity”", "binders": {"B1": {"name": "TBS probe (dsDNA)", "DNA 1": "GTAGGTCCCACTAGGTAGGTCCCACTAGGTAGGTCCCACTAGGTAGGTCCCACTAGGTAGGTCCCACTAG", "DNA 2": "CTAGTGGGACCTACCTAGTGGGACCTACCTAGTGGGACCTACCTAGTGGGACCTACCTAGTGGGACCTAC"}}, "biological_target": "GST-CHE (Arabidopsis thaliana, UniProt Q9FTA2 1-239)", "sequence (Q9FTA2 whole entry)": "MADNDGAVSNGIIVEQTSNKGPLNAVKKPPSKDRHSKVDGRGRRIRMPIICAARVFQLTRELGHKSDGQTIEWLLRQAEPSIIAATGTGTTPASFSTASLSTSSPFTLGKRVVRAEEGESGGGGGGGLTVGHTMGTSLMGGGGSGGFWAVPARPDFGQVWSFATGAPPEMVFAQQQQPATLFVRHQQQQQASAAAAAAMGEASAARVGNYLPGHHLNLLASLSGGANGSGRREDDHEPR", "assay": "EMSA; 5 pmol protein, 50 fmol probe; no HaRxL10; LightShift Chemiluminescent EMSA Kit per manufacturer; 5 pmol protein, 50 fmol biotin probe, 200-fold unlabelled competitor; probes annealed in 10 mM Tris, 1 mM Na2EDTA, 50 mM NaCl; binding buffer, pH and temperature not stated", "conditions": "protein: recombinant; tags: GST (pET-42a); chain copies: 2; label: 5'-biotin; blunt", "data": [{"binder": "B1", "values": [{"measurement": "binding result", "value": "binds"}]}]}
